Experimental findings from FireProtDB (doi:10.1021/bi012084+) are described below.

Sequences and labels used below:
B1: Glyceraldehyde-3-phosphate dehydrogenase, P00362 (parent)
chain: MAVKVGINGFGRIGRNVFRAALKNPDIEVVAVNDLTDANTLAHLLKYDSVHGRLDAEVSVNGNNLVVNGKEIIVKAERDPENLAWGEIGVDIVVESTGRFTKREDAAKHLEAGAKKVIISAPAKNEDITIVMGVNQDKYDPKAHHVISNASCTTNCLAPFAKVLHEQFGIVRGMMTTVHSYTNDQRILDLPHKDLRRARAAAESIIPTTTGAAKAVALVLPELKGKLNGMAMRVPTPNVSVVDLVAELEKEVTVEEVNAALKAAAEGELKGILAYSEEPLVSRDYNGSTVSSTIDALSTMVIDGKMVKVVSWYDNETGYSHRVVDLAAYIASKGL

Variants of B1 are the subject of the data set. As to conditions: Geobacillus stearothermophilus, pH 7.5, Thermal, DSC, KH2PO4/KOH 100 mM, reversible: no, structure 1GD1, whole UniProt chain shown.

“And” between values parts separate entries of the source, which are not always exact repeats. Identical values can stand only once.

For N315T, the Tm was found to be 62.3 °C and the “unfolding enthalpy (calorimetric)” value is 138 kcal/mol. Moreover, the Tm (transition: 3) came out at 65.5 °C.
For D284G, the “unfolding enthalpy (calorimetric)” value is 140 kcal/mol and 148 kcal/mol and 119 kcal/mol.
Regarding Y47G R53G, under “transition: 3”, the “unfolding enthalpy (calorimetric)” value was 214 kcal/mol and 127 kcal/mol and 180 kcal/mol.
For the variant Y47G S49G, for the setting “transition: 3”, the Tm was 70.2 °C and 71.2 °C; the “unfolding enthalpy (calorimetric)” value was 127 kcal/mol.
On to T36Q T40S L44Q, for which the Tm is 64.8 °C and 66.8 °C; the “unfolding enthalpy (calorimetric)” value is 215 kcal/mol and 176 kcal/mol. The “unfolding enthalpy (calorimetric)” value (transition: 3) is 215 kcal/mol and 127 kcal/mol.
W312F: the “unfolding enthalpy (calorimetric)” value is 371 kcal/mol and 525 kcal/mol.
On the same count and under the same terms, the value for Y285V was 182 kcal/mol and 397 kcal/mol and 178 kcal/mol.

As usually defined, the Tm is the temperature at the midpoint of the melting transition.
